# Starred links: 1 amine or outer side, 2 acyl side, 3 side chain; linkers in the order of their positions; H or OH if unused. Positions of bridges follow the written chain, without caps; N, C: chain ends. *: point of attachment. C20 diacid = O=C(O)CCCCCCCCCCCCCCCCCCC(=O)*; γGlu = O=C(O)[C@H](CCC(=O)[*:2])N[*:1]
# B1: N-alpha-[(S)-4-Carboxy-4-(19-carboxynonadecanoylamino)butyryl]-Glu-Arg-[Glu1,Glu14,Arg17,Gln21,Gln31,Gln35,Pro37]-pramlintide (peptide)
# peptide: {C20 diacid-γGlu}-ERECNTATCATQRLAEFLRHSSQNFGPILPPTQVGSQTP-NH2
# modifications: disulfide 4-9
# SMILES: CC[C@H](C)[C@H](NC(=O)[C@@H]1CCCN1C(=O)CNC(=O)[C@H](Cc1ccccc1)NC(=O)[C@H](CC(N)=O)NC(=O)[C@H](CCC(N)=O)NC(=O)[C@H](CO)NC(=O)[C@H](CO)NC(=O)[C@H](Cc1c[nH]cn1)NC(=O)[C@H](CCCNC(=N)N)NC(=O)[C@H](CC(C)C)NC(=O)[C@H](Cc1ccccc1)NC(=O)[C@H](CCC(=O)O)NC(=O)[C@H](C)NC(=O)[C@H](CC(C)C)NC(=O)[C@H](CCCNC(=N)N)NC(=O)[C@H](CCC(N)=O)NC(=O)[C@@H](NC(=O)[C@H](C)NC(=O)[C@@H]1CSSC[C@H](NC(=O)[C@H](CCC(=O)O)NC(=O)[C@H](CCCNC(=N)N)NC(=O)[C@H](CCC(=O)O)NC(=O)CC[C@H](NC(=O)CCCCCCCCCCCCCCCCCCC(=O)O)C(=O)O)C(=O)N[C@@H](CC(N)=O)C(=O)N[C@@H]([C@@H](C)O)C(=O)N[C@@H](C)C(=O)N[C@@H]([C@@H](C)O)C(=O)N1)[C@@H](C)O)C(=O)N[C@@H](CC(C)C)C(=O)N1CCC[C@H]1C(=O)N1CCC[C@H]1C(=O)N[C@H](C(=O)N[C@@H](CCC(N)=O)C(=O)N[C@H](C(=O)NCC(=O)N[C@@H](CO)C(=O)N[C@@H](CCC(N)=O)C(=O)N[C@H](C(=O)N1CCC[C@H]1C(N)=O)[C@@H](C)O)C(C)C)[C@@H](C)O
# B2: N-alpha-[(S)-4-Carboxy-4-(19-carboxynonadecanoylamino)butyryl]-Glu-Arg-[Glu1,Glu14,Arg17,Gln21,Gln35,Pro37]-pramlintide (peptide)
# peptide: {C20 diacid-γGlu}-ERECNTATCATQRLAEFLRHSSQNFGPILPPTNVGSQTP-NH2
# modifications: disulfide 4-9
# SMILES: CC[C@H](C)[C@H](NC(=O)[C@@H]1CCCN1C(=O)CNC(=O)[C@H](Cc1ccccc1)NC(=O)[C@H](CC(N)=O)NC(=O)[C@H](CCC(N)=O)NC(=O)[C@H](CO)NC(=O)[C@H](CO)NC(=O)[C@H](Cc1c[nH]cn1)NC(=O)[C@H](CCCNC(=N)N)NC(=O)[C@H](CC(C)C)NC(=O)[C@H](Cc1ccccc1)NC(=O)[C@H](CCC(=O)O)NC(=O)[C@H](C)NC(=O)[C@H](CC(C)C)NC(=O)[C@H](CCCNC(=N)N)NC(=O)[C@H](CCC(N)=O)NC(=O)[C@@H](NC(=O)[C@H](C)NC(=O)[C@@H]1CSSC[C@H](NC(=O)[C@H](CCC(=O)O)NC(=O)[C@H](CCCNC(=N)N)NC(=O)[C@H](CCC(=O)O)NC(=O)CC[C@H](NC(=O)CCCCCCCCCCCCCCCCCCC(=O)O)C(=O)O)C(=O)N[C@@H](CC(N)=O)C(=O)N[C@@H]([C@@H](C)O)C(=O)N[C@@H](C)C(=O)N[C@@H]([C@@H](C)O)C(=O)N1)[C@@H](C)O)C(=O)N[C@@H](CC(C)C)C(=O)N1CCC[C@H]1C(=O)N1CCC[C@H]1C(=O)N[C@H](C(=O)N[C@@H](CC(N)=O)C(=O)N[C@H](C(=O)NCC(=O)N[C@@H](CO)C(=O)N[C@@H](CCC(N)=O)C(=O)N[C@H](C(=O)N1CCC[C@H]1C(N)=O)[C@@H](C)O)C(C)C)[C@@H](C)O
# What was measured:
# [1] = biological target: T1, human calcitonin (a) receptor (human, UniProt P30988 25-474); assay: cell-based or functional assay
# T1 sequence (looked up): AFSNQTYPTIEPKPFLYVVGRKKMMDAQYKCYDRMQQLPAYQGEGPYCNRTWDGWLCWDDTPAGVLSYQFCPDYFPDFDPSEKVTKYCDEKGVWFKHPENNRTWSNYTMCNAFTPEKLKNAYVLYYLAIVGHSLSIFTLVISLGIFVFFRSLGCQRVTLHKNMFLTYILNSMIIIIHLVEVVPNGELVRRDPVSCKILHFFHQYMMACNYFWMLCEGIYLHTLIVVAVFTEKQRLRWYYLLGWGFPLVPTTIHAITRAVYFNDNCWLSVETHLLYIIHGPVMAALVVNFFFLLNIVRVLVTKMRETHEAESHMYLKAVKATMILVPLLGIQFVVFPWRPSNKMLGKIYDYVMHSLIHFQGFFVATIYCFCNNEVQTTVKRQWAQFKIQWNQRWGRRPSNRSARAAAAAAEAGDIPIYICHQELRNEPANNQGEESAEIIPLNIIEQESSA
# [2] = biological target: T2, human amylin 3(a) receptor (human calcitonin receptor + RAMP-3) (human, UniProt P30988 25-474; O60896 24-148); assay: cell-based or functional assay
# T2 sequence (looked up) 1: T1 sequence (looked up)
# T2 sequence (looked up) 2: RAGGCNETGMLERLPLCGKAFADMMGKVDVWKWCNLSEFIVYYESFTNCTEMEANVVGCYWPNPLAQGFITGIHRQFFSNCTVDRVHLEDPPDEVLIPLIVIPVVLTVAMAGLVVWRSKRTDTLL
binder,measurement,setting,value
B1,CTa receptor human EC50,[1],3.71 nM
same,Amylin receptor human EC50,[2],1.06 nM
B2,CTa receptor human EC50,[1],2.19 nM
same,Amylin receptor human EC50,[2],0.411 nM

# — patent US20130005646A1 (Novo Nordisk, published 2013)
